Source: paper PMC9352680, “A comprehensive thermodynamic model for RNA binding by the Saccharomyces cerevisiae Pumilio protein PUF4”

T1: PUF4 RNA-binding domain (Saccharomyces cerevisiae, UniProt P25339 537-888)
T1 sequence: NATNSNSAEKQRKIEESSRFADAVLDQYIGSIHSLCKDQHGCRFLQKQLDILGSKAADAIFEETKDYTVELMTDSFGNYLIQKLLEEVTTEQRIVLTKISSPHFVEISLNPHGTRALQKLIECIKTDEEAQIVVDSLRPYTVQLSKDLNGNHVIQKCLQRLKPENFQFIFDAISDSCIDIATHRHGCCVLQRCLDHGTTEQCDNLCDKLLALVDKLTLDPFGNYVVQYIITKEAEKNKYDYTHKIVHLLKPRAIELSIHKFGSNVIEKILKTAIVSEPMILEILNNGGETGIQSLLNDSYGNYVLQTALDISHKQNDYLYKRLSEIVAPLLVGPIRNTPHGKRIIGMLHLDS


Target: T1, PUF4 RNA-binding domain
Assay: Mg; RNA-MaP; 20 mM Na-HEPES pH 7.4, 30 mM KOAc, 0.75 mM MgCl2, 0.1% Tween-20, 5% glycerol, 0.1 mg/mL BSA, 2 mM DTT; 25 C; 0.0125-409.6 nM protein
Conditions: tags: N-His6-TEV cleaved; C-SNAP kept, Cy3B-labelled; label: tethered on chip by stalled RNA polymerase

| Binder | Kd [nM] |
| --- | --- |
| UCUCUUUCAUGUAUUUUAGUUCUCUU (ssRNA) [Id_iii_S1_P4E.8_K4.4_C4.3_[T-1A]_H4.1_A4.2_F4.1_T4.2] | 1.37 |
| UCUCUUUCUUGUAUUUUAUUUCUCUU (ssRNA) [Id_iii_S1_P4E.8_K4.4_C4.3_H4.1_A4.2_F4.1_T4.2_[G10T]] | 2.43 |
| UCUCUUUGUUUCAUUAUCUCUU (ssRNA) [Ib_S1_P5E.1_K5.1_C5.1_H5.1_[A4T]_A5.1_[T6C]_F5.1_T5.1] | 24.4 |
| UCUCUUUCUUGUAUUUUAAUUCUCUU (ssRNA) [Id_iii_S1_P4E.8_K4.4_C4.3_H4.1_A4.2_F4.1_T4.2_[G10A]] | 3.62 |
| UCUCUUUCUUGUAUUUUAGCUCUCUU (ssRNA) [Id_iii_S1_P4E.8_K4.4_C4.3_H4.1_A4.2_F4.1_T4.2_[T11C]] | 1.07 |
| UCUCUUUGUUGUAUUUAAGUUCUCUU (ssRNA) [Id_iii_S1_P4E.9_K4.5_C4.3_[C-2G]_H4.1_A4.2_F4.2_T4.2] | 155 |
| UCUCUUUUUUGUAUUUAAGUUCUCUU (ssRNA) [Id_iii_S1_P4E.9_K4.5_C4.3_[C-2T]_H4.1_A4.2_F4.2_T4.2] | 618 |
| UCUCUUUCGUGUAUUUAAGUUCUCUU (ssRNA) [Id_iii_S1_P4E.9_K4.5_C4.3_[T-1G]_H4.1_A4.2_F4.2_T4.2] | 694 |
| UCUCUUUCCUGUAUUUAAGUUCUCUU (ssRNA) [Id_iii_S1_P4E.9_K4.5_C4.3_[T-1C]_H4.1_A4.2_F4.2_T4.2] | 460 |
| UCUCUUUCAUGUAUUUAAGUUCUCUU (ssRNA) [Id_iii_S1_P4E.9_K4.5_C4.3_[T-1A]_H4.1_A4.2_F4.2_T4.2] | 648 |
| UCUCUUUCUUGUAUUUAACUUCUCUU (ssRNA) [Id_iii_S1_P4E.9_K4.5_C4.3_H4.1_A4.2_F4.2_T4.2_[G10C]] | 70.1 |
| UCUCUUUCUUGUAUUUAAAUUCUCUU (ssRNA) [Id_iii_S1_P4E.9_K4.5_C4.3_H4.1_A4.2_F4.2_T4.2_[G10A]] | 96.9 |
| UCUCUUUCUUGUAUUAUUAAAUCUCUU (ssRNA) [Id_iii_S1_P5E.5_K5.1_C5.3_H5.1_A5.1_F5.1_T5.2_[T11A]] | 11.1 |
| UCUCUUUGUUUAAUUAUCUCUU (ssRNA) [Ib_S1_P5E.1_K5.1_C5.1_H5.1_[A4T]_A5.1_[T6A]_F5.1_T5.1] | 44.6 |
| UCUCUUUCUUGUAUUAUUAUGUCUCUU (ssRNA) [Id_iii_S1_P5E.5_K5.1_C5.3_H5.1_A5.1_F5.1_T5.2_[A12G]] | 8.55 |
| UCUCUUUCUUGUAUUAUUAUCUCUCUU (ssRNA) [Id_iii_S1_P5E.5_K5.1_C5.3_H5.1_A5.1_F5.1_T5.2_[A12C]] | 6 |

| Binder | Kd [nM] |
| --- | --- |
| UCUCUUUCUUGUAUUAUUAUUUCUCUU (ssRNA) [Id_iii_S1_P5E.5_K5.1_C5.3_H5.1_A5.1_F5.1_T5.2_[A12T]] | 4.34 |
| UCUCUUUCUUAUAUUAUUACAUCUCUU (ssRNA) [Id_iii_S1_P5E.6_K5.2_C5.3_H5.2_A5.1_F5.1_T5.2_[T11C]] | 450 |
| UCUCUUUCUUAUAUUAUUAAAUCUCUU (ssRNA) [Id_iii_S1_P5E.6_K5.2_C5.3_H5.2_A5.1_F5.1_T5.2_[T11A]] | 551 |
| UCUCUUUCUUAUAUUAUUAUCUCUCUU (ssRNA) [Id_iii_S1_P5E.6_K5.2_C5.3_H5.2_A5.1_F5.1_T5.2_[A12C]] | 471 |
| UCUCUUUCUUAUAUUAUUAUUUCUCUU (ssRNA) [Id_iii_S1_P5E.6_K5.2_C5.3_H5.2_A5.1_F5.1_T5.2_[A12T]] | 372 |
| UCUCUUCCUACACUUAUUAUAUCUCUU (ssRNA) [Id_iii_S1_P5E.7_K5.3_C5.3_[T-3C]_H5.3_A5.1_F5.1_T5.2] | > 2300 |
| UCUCUUACUACACUUAUUAUAUCUCUU (ssRNA) [Id_iii_S1_P5E.7_K5.3_C5.3_[T-3A]_H5.3_A5.1_F5.1_T5.2] | 1570 |
| UCUCUUUGUACACUUAUUAUAUCUCUU (ssRNA) [Id_iii_S1_P5E.7_K5.3_C5.3_[C-2G]_H5.3_A5.1_F5.1_T5.2] | 3.9 |
| UCUCUUUGUAUUUUUAUCUCUU (ssRNA) [Ia_S1_P5E.1_K5.1_C5.1_H5.1_A5.1_[A7T]_F5.1_T5.1] | 3.57 |
| UCUCUUUGUGUUUUUAUCUCUU (ssRNA) [Ib_S1_P5E.1_K5.1_C5.1_H5.1_[A4G]_A5.1_[A7T]_F5.1_T5.1] | 26.8 |
| UCUCUUUAUACACUUAUUAUAUCUCUU (ssRNA) [Id_iii_S1_P5E.7_K5.3_C5.3_[C-2A]_H5.3_A5.1_F5.1_T5.2] | 720 |
| UCUCUUUCCACACUUAUUAUAUCUCUU (ssRNA) [Id_iii_S1_P5E.7_K5.3_C5.3_[T-1C]_H5.3_A5.1_F5.1_T5.2] | > 2300 |
| UCUCUUUCUACACUUAUUACAUCUCUU (ssRNA) [Id_iii_S1_P5E.7_K5.3_C5.3_H5.3_A5.1_F5.1_T5.2_[T11C]] | > 2300 |
| UCUCUUUCUACACUUAUUAUGUCUCUU (ssRNA) [Id_iii_S1_P5E.7_K5.3_C5.3_H5.3_A5.1_F5.1_T5.2_[A12G]] | > 2300 |
| UCUCUUUCUACACUUAUUAUUUCUCUU (ssRNA) [Id_iii_S1_P5E.7_K5.3_C5.3_H5.3_A5.1_F5.1_T5.2_[A12T]] | > 2300 |
